Measured values taken from IntAct's records for PubMed 27857056.

B1: UDP-glucuronosyltransferase 1A9 (Homo sapiens), O60656-1 (parent)
chain: MACTGWTSPLPLCVCLLLTCGFAEAGKLLVVPMDGSHWFTMRSVVEKLILRGHEVVVVMPEVSWQLGRSLNCTVKTYSTSYTLEDLDREFKAFAHAQWKAQVRSIYSLLMGSYNDIFDLFFSNCRSLFKDKKLVEYLKESSFDAVFLDPFDNCGLIVAKYFSLPSVVFARGILCHYLEEGAQCPAPLSYVPRILLGFSDAMTFKERVRNHIMHLEEHLLCHRFFKNALEIASEILQTPVTEYDLYSHTSIWLLRTDFVLDYPKPVMPNMIFIGGINCHQGKPLPMEFEAYINASGEHGIVVFSLGSMVSEIPEKKAMAIADALGKIPQTVLWRYTGTRPSNLANNTILVKWLPQNDLLGHPMTRAFITHAGSHGVYESICNGVPMVMMPLFGDQMDNAKRMETKGAGVTLNVLEMTSEDLENALKAVINDKSYKENIMRLSSLHKDRPVEPLDLAVFWVEFVMRHKGAPHLRPAAHDLTWYQYHSLDVIGFLLAVVLTVAFITFKCCAYGYRKCLGKKGRVKKAHKSKTH
partner: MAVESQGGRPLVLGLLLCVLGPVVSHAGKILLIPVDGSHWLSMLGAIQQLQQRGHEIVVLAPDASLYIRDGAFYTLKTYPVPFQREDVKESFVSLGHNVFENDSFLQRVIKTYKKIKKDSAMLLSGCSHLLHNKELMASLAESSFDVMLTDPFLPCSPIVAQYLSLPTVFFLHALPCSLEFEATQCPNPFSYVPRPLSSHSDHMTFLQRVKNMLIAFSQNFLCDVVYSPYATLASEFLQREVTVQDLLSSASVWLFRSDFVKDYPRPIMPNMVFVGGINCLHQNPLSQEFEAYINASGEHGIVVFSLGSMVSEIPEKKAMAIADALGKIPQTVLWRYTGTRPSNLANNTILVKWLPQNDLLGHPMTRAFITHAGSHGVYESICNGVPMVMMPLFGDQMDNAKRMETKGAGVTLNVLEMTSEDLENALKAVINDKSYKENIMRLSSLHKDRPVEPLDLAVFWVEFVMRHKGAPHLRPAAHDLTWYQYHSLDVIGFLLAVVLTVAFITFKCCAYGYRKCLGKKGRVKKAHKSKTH
B2: UDP-glucuronosyltransferase 1A9 (Homo sapiens), O60656-1 (parent)
chain: B1 chain
partner: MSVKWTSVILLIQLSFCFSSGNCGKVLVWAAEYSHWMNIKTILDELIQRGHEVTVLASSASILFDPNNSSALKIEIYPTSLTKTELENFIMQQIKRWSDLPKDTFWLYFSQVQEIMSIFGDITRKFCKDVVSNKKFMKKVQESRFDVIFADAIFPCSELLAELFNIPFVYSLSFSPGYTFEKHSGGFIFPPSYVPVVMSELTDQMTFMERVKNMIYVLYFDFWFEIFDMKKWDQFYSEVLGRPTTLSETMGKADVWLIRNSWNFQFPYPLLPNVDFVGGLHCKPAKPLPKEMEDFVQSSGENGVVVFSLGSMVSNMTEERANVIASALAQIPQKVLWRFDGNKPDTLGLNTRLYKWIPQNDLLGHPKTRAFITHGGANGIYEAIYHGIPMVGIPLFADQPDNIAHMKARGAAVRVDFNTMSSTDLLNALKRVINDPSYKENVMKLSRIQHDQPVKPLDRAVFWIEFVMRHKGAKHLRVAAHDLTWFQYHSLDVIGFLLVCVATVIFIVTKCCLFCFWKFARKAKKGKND

Variants of: B1
Details: with UGT1A1, P22309-1
MACTGWTSPLPLCVCLLLTCGFAEAGKLLVVPMDGSHWFTMRSVVEKLILRGHEVVVVMPEVSWQLGRSLNCTVKTYSTSYTLEDLDREFKAFAHAQWKAQVRSIYSLLMGSYNDIFDLFFSNCRSLFKDKKLVEYLKESSFDAVFLDPFDNCGLIVAKYFSLPSVVFARGILCHYLEEGAQCPAPLSYVPRILLGFSDAMTFKERVRNHIMHLEEHLLCHRFFKNALEIASEILQTPVTEYDLYSHTSIWLLRTNFVLDYPKPVMPNMIFIGGINCHQGKPLPMEFEAYINASGEHGIVVFSLGSMVSEIPEKKAMAIADALGKIPQTVLWRYTGTRPSNLANNTILVKWLPQNDLLGHPMTRAFITHAGSHGVYESICNGVPMVMMPLFGDQMDNAKRMETKGAGVTLNVLEMTSEDLENALKAVINDKSYKENIMRLSSLHKDRPVEPLDLAVFWVEFVMRHKGAPHLRPAAHDLTWYQYHSLDVIGFLLAVVLTVAFITFKCCAYGYRKCLGKKGRVKKAHKSKTH [D256N] was tested, and the “effect of a mutation on the interaction” value was “with no effect”. MAYTGWTSPLPLCVCLLLTCGFAEAGKLLVVPMDGSHWFTMRSVVEKLILRGHEVVVVMPEVSWQLGRSLNCTVKTYSTSYTLEDLDREFKAFAHAQWKAQVRSIYSLLMGSYNDIFDLFFSNCRSLFKDKKLVEYLKESSFDAVFLDPFDNCGLIVAKYFSLPSVVFARGILCHYLEEGAQCPAPLSYVPRILLGFSDAMTFKERVRNHIMHLEEHLLCHRFFKNALEIASEILQTPVTEYDLYSHTSIWLLRTDFVLDYPKPVMPNMIFIGGINCHQGKPLPMEFEAYINASGEHGIVVFSLGSMVSEIPEKKAMAIADALGKIPQTVLWRYTGTRPSNLANNTILVKWLPQNDLLGHPMTRAFITHAGSHGVYESICNGVPMVMMPLFGDQMDNAKRMETKGAGVTLNVLEMTSEDLENALKAVINDKSYKENIMRLSSLHKDRPVEPLDLAVFWVEFVMRHKGAPHLRPAAHDLTWYQYHSLDVIGFLLAVVLTVAFITFKCCAYGYRKCLGKKGRVKKAHKSKTH [C3Y] was tested, and the “effect of a mutation on the interaction” value was “with no effect”. For MACTGWTSPLPLCVCLLLTCGFAEAGKLLVVPTDGSHWFTMRSVVEKLILRGHEVVVVMPEVSWQLGRSLNCTVKTYSTSYTLEDLDREFKAFAHAQWKAQVRSIYSLLMGSYNDIFDLFFSNCRSLFKDKKLVEYLKESSFDAVFLDPFDNCGLIVAKYFSLPSVVFARGILCHYLEEGAQCPAPLSYVPRILLGFSDAMTFKERVRNHIMHLEEHLLCHRFFKNALEIASEILQTPVTEYDLYSHTSIWLLRTDFVLDYPKPVMPNMIFIGGINCHQGKPLPMEFEAYINASGEHGIVVFSLGSMVSEIPEKKAMAIADALGKIPQTVLWRYTGTRPSNLANNTILVKWLPQNDLLGHPMTRAFITHAGSHGVYESICNGVPMVMMPLFGDQMDNAKRMETKGAGVTLNVLEMTSEDLENALKAVINDKSYKENIMRLSSLHKDRPVEPLDLAVFWVEFVMRHKGAPHLRPAAHDLTWYQYHSLDVIGFLLAVVLTVAFITFKCCAYGYRKCLGKKGRVKKAHKSKTH [M33T], the “effect of a mutation on the interaction” value was “with no effect”.

Variants of: B2
Details: with ud2b7_human UGT2B7, P16662
With MACTGWTSPLPLCVCLLLTCGFAEAGKLLVVPMDGSHWFTMRSVVEKLILRGHEVVVVMPEVSWQLGRSLNCTVKTYSTSYTLEDLDREFKAFAHAQWKAQVRSIYSLLMGSYNDIFDLFFSNCRSLFKDKKLVEYLKESSFDAVFLDPFDNCGLIVAKYFSLPSVVFARGILCHYLEEGAQCPAPLSYVPRILLGFSDAMTFKERVRNHIMHLEEHLLCHRFFKNALEIASEILQTPVTEYDLYSHTSIWLLRTNFVLDYPKPVMPNMIFIGGINCHQGKPLPMEFEAYINASGEHGIVVFSLGSMVSEIPEKKAMAIADALGKIPQTVLWRYTGTRPSNLANNTILVKWLPQNDLLGHPMTRAFITHAGSHGVYESICNGVPMVMMPLFGDQMDNAKRMETKGAGVTLNVLEMTSEDLENALKAVINDKSYKENIMRLSSLHKDRPVEPLDLAVFWVEFVMRHKGAPHLRPAAHDLTWYQYHSLDVIGFLLAVVLTVAFITFKCCAYGYRKCLGKKGRVKKAHKSKTH [D256N] the “effect of a mutation on the interaction” value was “with no effect”. In the case of MACTGWTSPLPLCVCLLLTCGFAEAGKLLVVPTDGSHWFTMRSVVEKLILRGHEVVVVMPEVSWQLGRSLNCTVKTYSTSYTLEDLDREFKAFAHAQWKAQVRSIYSLLMGSYNDIFDLFFSNCRSLFKDKKLVEYLKESSFDAVFLDPFDNCGLIVAKYFSLPSVVFARGILCHYLEEGAQCPAPLSYVPRILLGFSDAMTFKERVRNHIMHLEEHLLCHRFFKNALEIASEILQTPVTEYDLYSHTSIWLLRTDFVLDYPKPVMPNMIFIGGINCHQGKPLPMEFEAYINASGEHGIVVFSLGSMVSEIPEKKAMAIADALGKIPQTVLWRYTGTRPSNLANNTILVKWLPQNDLLGHPMTRAFITHAGSHGVYESICNGVPMVMMPLFGDQMDNAKRMETKGAGVTLNVLEMTSEDLENALKAVINDKSYKENIMRLSSLHKDRPVEPLDLAVFWVEFVMRHKGAPHLRPAAHDLTWYQYHSLDVIGFLLAVVLTVAFITFKCCAYGYRKCLGKKGRVKKAHKSKTH [M33T], the “effect of a mutation on the interaction” value is reported as “with no effect”. With MAYTGWTSPLPLCVCLLLTCGFAEAGKLLVVPMDGSHWFTMRSVVEKLILRGHEVVVVMPEVSWQLGRSLNCTVKTYSTSYTLEDLDREFKAFAHAQWKAQVRSIYSLLMGSYNDIFDLFFSNCRSLFKDKKLVEYLKESSFDAVFLDPFDNCGLIVAKYFSLPSVVFARGILCHYLEEGAQCPAPLSYVPRILLGFSDAMTFKERVRNHIMHLEEHLLCHRFFKNALEIASEILQTPVTEYDLYSHTSIWLLRTDFVLDYPKPVMPNMIFIGGINCHQGKPLPMEFEAYINASGEHGIVVFSLGSMVSEIPEKKAMAIADALGKIPQTVLWRYTGTRPSNLANNTILVKWLPQNDLLGHPMTRAFITHAGSHGVYESICNGVPMVMMPLFGDQMDNAKRMETKGAGVTLNVLEMTSEDLENALKAVINDKSYKENIMRLSSLHKDRPVEPLDLAVFWVEFVMRHKGAPHLRPAAHDLTWYQYHSLDVIGFLLAVVLTVAFITFKCCAYGYRKCLGKKGRVKKAHKSKTH [C3Y] the “effect of a mutation on the interaction” value was “with no effect”.
